What was measured:
[1] = biological target: t2ea_human GTF2E1 (UniProt P29083)
[2] = biological target: t2ea_human GTF2E1 (UniProt P29083); remark: listed apart in the source
[3] = biological target: t2ea_human GTF2E1 (UniProt P29083); remark: listed apart in the source
[4] = biological target: t2ea_human GTF2E1 (UniProt P29083); remark: listed apart in the source
[5] = biological target: t2ea_human GTF2E1 (UniProt P29083); remark: listed apart in the source
[6] = biological target: t2ea_human GTF2E1 (UniProt P29083); remark: listed apart in the source

Chain of t2ea_human GTF2E1 (P29083 whole entry): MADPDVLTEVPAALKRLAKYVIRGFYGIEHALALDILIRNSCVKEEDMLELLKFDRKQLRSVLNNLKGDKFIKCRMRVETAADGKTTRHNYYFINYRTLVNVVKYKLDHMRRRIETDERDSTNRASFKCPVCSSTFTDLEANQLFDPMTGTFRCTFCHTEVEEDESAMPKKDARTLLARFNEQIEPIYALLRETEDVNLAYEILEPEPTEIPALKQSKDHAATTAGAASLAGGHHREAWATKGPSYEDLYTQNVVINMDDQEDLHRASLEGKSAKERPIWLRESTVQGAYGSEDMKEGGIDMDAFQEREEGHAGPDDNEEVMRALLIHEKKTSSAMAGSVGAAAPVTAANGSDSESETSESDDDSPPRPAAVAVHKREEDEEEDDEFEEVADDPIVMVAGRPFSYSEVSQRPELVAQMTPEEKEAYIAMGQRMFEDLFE
Chain of General transcription factor IIH subunit 1 (Homo sapiens), P32780 Q66A (P32780 whole entry Q66A): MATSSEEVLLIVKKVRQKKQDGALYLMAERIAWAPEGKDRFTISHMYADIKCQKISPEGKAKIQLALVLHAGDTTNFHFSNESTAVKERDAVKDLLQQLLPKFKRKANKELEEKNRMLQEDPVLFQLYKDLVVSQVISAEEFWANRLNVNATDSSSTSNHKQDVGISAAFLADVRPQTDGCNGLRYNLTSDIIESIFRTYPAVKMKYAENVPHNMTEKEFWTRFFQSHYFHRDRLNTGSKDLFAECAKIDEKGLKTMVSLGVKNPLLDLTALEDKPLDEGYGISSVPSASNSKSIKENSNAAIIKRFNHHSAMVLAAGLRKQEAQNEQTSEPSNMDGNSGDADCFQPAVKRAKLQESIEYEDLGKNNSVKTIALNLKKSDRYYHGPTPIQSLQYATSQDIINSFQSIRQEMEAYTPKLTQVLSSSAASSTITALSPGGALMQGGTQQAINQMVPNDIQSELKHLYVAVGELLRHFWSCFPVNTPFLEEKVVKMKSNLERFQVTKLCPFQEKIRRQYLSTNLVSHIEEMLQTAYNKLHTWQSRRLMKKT
Chain of General transcription factor IIH subunit 1 (Homo sapiens), P32780 V68A (P32780 whole entry V68A): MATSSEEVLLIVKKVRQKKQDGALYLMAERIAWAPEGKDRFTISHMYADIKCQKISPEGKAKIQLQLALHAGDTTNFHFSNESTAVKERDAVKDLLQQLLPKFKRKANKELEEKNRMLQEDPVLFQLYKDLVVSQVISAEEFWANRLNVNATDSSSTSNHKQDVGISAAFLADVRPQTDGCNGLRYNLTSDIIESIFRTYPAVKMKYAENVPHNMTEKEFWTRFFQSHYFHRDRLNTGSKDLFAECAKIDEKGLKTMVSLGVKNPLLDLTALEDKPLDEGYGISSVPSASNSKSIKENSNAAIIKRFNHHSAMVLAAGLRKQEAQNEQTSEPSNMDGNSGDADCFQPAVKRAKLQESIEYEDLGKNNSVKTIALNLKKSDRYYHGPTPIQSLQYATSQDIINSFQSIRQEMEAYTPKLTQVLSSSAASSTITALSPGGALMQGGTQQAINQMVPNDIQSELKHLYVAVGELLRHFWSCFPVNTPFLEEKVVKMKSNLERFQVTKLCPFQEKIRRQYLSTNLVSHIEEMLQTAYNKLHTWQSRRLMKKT
Chain of General transcription factor IIH subunit 1 (Homo sapiens), P32780 K19A (P32780 whole entry K19A): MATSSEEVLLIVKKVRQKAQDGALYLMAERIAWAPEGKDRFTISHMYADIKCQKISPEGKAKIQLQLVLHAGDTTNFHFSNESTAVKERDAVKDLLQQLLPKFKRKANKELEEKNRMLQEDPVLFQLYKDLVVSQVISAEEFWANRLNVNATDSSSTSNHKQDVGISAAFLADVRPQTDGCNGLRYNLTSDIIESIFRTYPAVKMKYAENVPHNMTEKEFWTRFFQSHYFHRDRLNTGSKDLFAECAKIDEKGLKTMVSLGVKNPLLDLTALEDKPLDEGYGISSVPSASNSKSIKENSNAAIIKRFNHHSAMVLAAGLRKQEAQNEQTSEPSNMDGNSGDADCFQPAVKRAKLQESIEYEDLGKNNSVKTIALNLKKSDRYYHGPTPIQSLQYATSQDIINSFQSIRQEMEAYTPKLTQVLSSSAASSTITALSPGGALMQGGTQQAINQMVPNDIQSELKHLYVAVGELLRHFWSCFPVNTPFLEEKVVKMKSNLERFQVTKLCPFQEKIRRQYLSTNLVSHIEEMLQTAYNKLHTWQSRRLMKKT
Chain of General transcription factor IIH subunit 1 (Homo sapiens), P32780 K18A (P32780 whole entry K18A): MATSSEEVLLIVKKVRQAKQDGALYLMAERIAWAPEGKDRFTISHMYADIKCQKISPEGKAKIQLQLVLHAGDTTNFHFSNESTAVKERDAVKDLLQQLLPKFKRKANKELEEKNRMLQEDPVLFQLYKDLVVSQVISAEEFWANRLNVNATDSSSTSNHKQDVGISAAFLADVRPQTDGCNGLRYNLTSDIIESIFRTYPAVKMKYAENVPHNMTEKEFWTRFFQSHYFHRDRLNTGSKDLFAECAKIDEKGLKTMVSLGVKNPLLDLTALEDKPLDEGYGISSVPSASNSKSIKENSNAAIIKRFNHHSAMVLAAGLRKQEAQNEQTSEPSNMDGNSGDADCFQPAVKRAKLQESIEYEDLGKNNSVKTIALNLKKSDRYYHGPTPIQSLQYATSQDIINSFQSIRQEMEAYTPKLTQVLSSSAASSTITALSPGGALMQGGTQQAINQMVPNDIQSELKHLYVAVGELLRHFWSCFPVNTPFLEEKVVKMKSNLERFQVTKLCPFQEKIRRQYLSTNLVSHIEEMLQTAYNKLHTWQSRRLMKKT
Chain of General transcription factor IIH subunit 1 (Homo sapiens), P32780 K54A (P32780 whole entry K54A): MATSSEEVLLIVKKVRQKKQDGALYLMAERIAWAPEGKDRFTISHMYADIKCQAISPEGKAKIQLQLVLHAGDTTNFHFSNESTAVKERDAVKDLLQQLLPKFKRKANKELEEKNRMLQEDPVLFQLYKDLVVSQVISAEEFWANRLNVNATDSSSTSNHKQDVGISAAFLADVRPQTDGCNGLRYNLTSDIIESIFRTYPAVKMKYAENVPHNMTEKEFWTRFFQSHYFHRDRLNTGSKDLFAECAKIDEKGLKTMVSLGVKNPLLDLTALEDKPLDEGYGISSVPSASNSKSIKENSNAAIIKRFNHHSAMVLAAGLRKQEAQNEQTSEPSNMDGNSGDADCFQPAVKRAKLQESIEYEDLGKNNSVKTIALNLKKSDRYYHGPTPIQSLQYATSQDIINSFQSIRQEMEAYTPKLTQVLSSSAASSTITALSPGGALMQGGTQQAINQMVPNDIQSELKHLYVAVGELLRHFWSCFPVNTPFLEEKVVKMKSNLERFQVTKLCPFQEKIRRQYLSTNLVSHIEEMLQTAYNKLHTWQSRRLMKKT

## General transcription factor IIH subunit 1 (Homo sapiens), P32780 K18A
[1]
  effect of a mutation on the interaction: decreasing interaction

## General transcription factor IIH subunit 1 (Homo sapiens), P32780 K54A
[2]
  effect of a mutation on the interaction: disrupting interaction

## General transcription factor IIH subunit 1 (Homo sapiens), P32780 K19A
[3]
  effect of a mutation on the interaction: disrupting interaction

## General transcription factor IIH subunit 1 (Homo sapiens), P32780 Q66A
[4]
  effect of a mutation on the interaction: disrupting interaction
[5]
  effect of a mutation on the interaction: decreasing interaction

## General transcription factor IIH subunit 1 (Homo sapiens), P32780 V68A
[6]
  effect of a mutation on the interaction: decreasing interaction

— IntAct's records for PubMed 18354501
